The results in this text go back to patent US20190078119A1.

This experiment addresses AAV8 capsid (native AAV8) (AAV8). Put plainly: cell-based or functional assay.
Regarding monoclonal antibody ADK8/9, the AAV8 Nab titer (neutralizing antibody titer of the antibody stock) is 2560 titer 1:n.
As to monoclonal antibody ADK9, the AAV8 Nab titer (neutralizing antibody titer of the antibody stock) is 5 titer 1:n.
For monoclonal neutralizing antibody ADK8, the AAV8 Nab titer (neutralizing antibody titer of the antibody stock) is 2560 titer 1:n.
